T1: human FcγRIa (human, UniProt P12314)
T1 chain: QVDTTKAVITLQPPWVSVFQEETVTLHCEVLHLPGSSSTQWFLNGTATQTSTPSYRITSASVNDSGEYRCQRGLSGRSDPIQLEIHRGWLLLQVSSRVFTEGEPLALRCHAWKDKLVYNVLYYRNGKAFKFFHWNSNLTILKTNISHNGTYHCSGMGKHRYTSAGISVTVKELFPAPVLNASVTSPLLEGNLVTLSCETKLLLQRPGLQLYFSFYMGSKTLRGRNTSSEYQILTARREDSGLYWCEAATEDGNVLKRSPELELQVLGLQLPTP

T2: human FcγRIIb (human, UniProt P31994)
T2 chain: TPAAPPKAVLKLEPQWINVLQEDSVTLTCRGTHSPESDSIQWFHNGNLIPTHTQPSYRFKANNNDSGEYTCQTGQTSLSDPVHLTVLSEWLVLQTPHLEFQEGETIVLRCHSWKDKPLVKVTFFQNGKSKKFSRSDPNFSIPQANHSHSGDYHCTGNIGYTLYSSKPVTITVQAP

B1: BP547 (antibody)
chain 1: QVQLQESGPGLVKPSETLSLTCAVSGHSISHDHAWSWVRQPPGEGLEWIGFISYSGITNYNPSLQGRVTISRDNSKNTLYLQMNSLRAEDTAVYYCARSLARTTAMDYWGEGTLVTVSSASTKGPSVFPLAPSSKSTSGGTAALGCLVKDYFPEPVTVSWNSGALTSGVHTFPAVLQSSGLYSLSSVVTVPSSSLGTQTYICNVNHKPSNTKVDKKVEPKSCDKTHTCPPCPAPDLLGDDSVFLFPPKPKDTLMISRTPEVTCVVVDVSDEDGEVKFNWYVDGVEVHNAKTKPREEQDNSTYRVVSVLTVLHQDWLNGKEYKCKVSNKALPRPIEKTISKAKGQPREPQVYTLPPSRDELTKNQVSLTCLVKGFYPSDIAVEWESNGQPENNYKTTPPVLDSDGSFFLYSRLTVDKSRWQQGNVFSCSVMHEALHNHYTQESLSLSP
chain 2: not shown
B2: BP546 (antibody)
chain 1: B1 chain 1 with L360M, R411K
chain 2: not shown
B3: BP543 (antibody)
chain 1: B1 chain 1 with D270Q, R411K
chain 2: not shown
B4: BP541 (antibody)
chain 1: B1 chain 1 with K276Q, R411K
chain 2: not shown
B5: BP548 (antibody)
chain 1: B1 chain 1 with R411K, Q421E
chain 2: not shown
B6: BP230 (antibody)
chain 1: B1 chain 1 with R411K
chain 2: not shown
B7: BP544 (antibody)
chain 1: B1 chain 1 with R357Q, R411K
chain 2: not shown
B8: BP542 (antibody)
chain 1: B1 chain 1 with D298F, R411K
chain 2: not shown
B9: BP545 (antibody)
chain 1: B1 chain 1 with D358E, R411K
chain 2: not shown
B10: F1166 (antibody)
chain 1: QVQLQESGPGLVKPSETLSLTCAVSGHSISHDHAWSWVRQPPGEGLEWIGFISYSGITNYNPSLQGRVTISRDNSKNTLYLQMNSLRAEDTAVYYCARSLARTTAMDYWGEGTLVTVSSASTKGPSVFPLAPSSKSTSGGTAALGCLVKDYFPEPVTVSWNSGALTSGVHTFPAVLQSSGLYSLSSVVTVPSSSLGTQTYICNVNHKPSNTKVDKKVEPKSCDKTHTCPPCPAPELLGGPSVFLFPPKPKDTLYITREPEVTCVVVDVSHEDPEVKFNWYVDGVEVHNAKTKPREEQYNSTYRVVSVLTVLHQDWLNGKEYKCKVSNKALPAPIEKTISKAKGQPREPQVYTLPPSRDELTKNQVSLTCLVKGFYPSDIAVEWESNGQPENNYKTTPPVLDSDGSFFLYSKLTVDKSRWQQGNVFSCSVMHEALHNHYTRKELSLSP
chain 2: DIQMTQSPSSLSASVGDSVTITCQASTDISSHLNWYQQKPGKAPELLIYYGSHLLSGVPSRFSGSGSGTDFTFTISSLEAEDAATYYCGQGNRLPYTFGQGTKVEIERTVAAPSVFIFPPSDEQLKSGTASVVCLLNNFYPREAKVQWKVDNALQSGNSQESVTEQDSKDSTYSLSSTLTLSKADYEKHKVYACEVTHQGLSSPVTKSFNRGEC
B11: F1167 (antibody)
chain 1: B10 chain 1 with S426N, R440Q, E442S
chain 2: B10 chain 2
B12: F1172 (antibody)
chain 1: B10 chain 1 with Y254M, T256S, E258T, N436H
chain 2: B10 chain 2
B13: F1170 (antibody)
chain 1: B10 chain 1 with Y254M, T256S, E258T, M430L, N436S
chain 2: B10 chain 2
B14: Fv4-YTE (antibody)
chain 1: B10 chain 1 with R440Q, E442S
chain 2: B10 chain 2
B15: F1171 (antibody)
chain 1: B10 chain 1 with Y254M, T256S, E258T, S426N, M430L, N436S, R440Q, E442S
chain 2: B10 chain 2
B16: Fv4-IgG1 (antibody)
chain 1: not shown
chain 2: B10 chain 2
B17: F1382 (antibody)
chain 1: B10 chain 1 with Y254M, T256S, E258T, S428K, M430L, N436S, R440Q, E442S
chain 2: B10 chain 2
B18: F1392 (antibody)
chain 1: B10 chain 1 with Y254M, T256S, E258T, M430L, N436S, Y438K, R440Q, E442S
chain 2: B10 chain 2
B19: F1386 (antibody)
chain 1: B10 chain 1 with Y254M, T256S, E258T, S428Y, M430L, N436S, R440Q, E442S
chain 2: B10 chain 2
B20: F1383 (antibody)
chain 1: B10 chain 1 with Y254M, T256S, E258T, S428R, M430L, N436S, R440Q, E442S
chain 2: B10 chain 2
B21: F1385 (antibody)
chain 1: B10 chain 1 with Y254M, T256S, E258T, S428Q, M430L, N436S, R440Q, E442S
chain 2: B10 chain 2
B22: F1380 (antibody)
chain 1: B10 chain 1 with Y254M, T256S, E258T, S428D, M430L, N436S, R440Q, E442S
chain 2: B10 chain 2
B23: F1387 (antibody)
chain 1: B10 chain 1 with Y254M, T256S, E258T, M430L, N436S, Y438M, R440Q, E442S
chain 2: B10 chain 2
B24: F1389 (antibody)
chain 1: B10 chain 1 with Y254M, T256S, E258T, M430L, N436S, Y438T, R440Q, E442S
chain 2: B10 chain 2
B25: F1390 (antibody)
chain 1: B10 chain 1 with Y254M, T256S, E258T, M430L, N436S, Y438H, R440Q, E442S
chain 2: B10 chain 2
B26: F1388 (antibody)
chain 1: B10 chain 1 with Y254M, T256S, E258T, M430L, N436S, Y438F, R440Q, E442S
chain 2: B10 chain 2
B27: F1384 (antibody)
chain 1: B10 chain 1 with Y254M, T256S, E258T, S428A, M430L, N436S, R440Q, E442S
chain 2: B10 chain 2
B28: F1391 (antibody)
chain 1: B10 chain 1 with Y254M, T256S, E258T, M430L, N436S, Y438N, R440Q, E442S
chain 2: B10 chain 2
B29: F1381 (antibody)
chain 1: B10 chain 1 with Y254M, T256S, E258T, S428E, M430L, N436S, R440Q, E442S
chain 2: B10 chain 2

Changes are numbered by the printed parent chain.

For the first assay, the target named is T1, human FcγRIa. Kind of assay: SPR.
Molecule B1 had a dissociation constant (Kd) of 12 nM. This counts as double-digit nanomolar.

B2: the Kd turned out to be 9 nM.

For the molecule B3, binding was characterised by a dissociation constant (Kd) of 23 nM. Compared with the last molecule, the Kd is about 2.6-fold higher.

In turn, B4 showed a dissociation constant (Kd) of 11 nM.

For the molecule B5, the Kd came to 12 nM.

In turn, B6 returned a dissociation constant Kd of 10 nM.

B7 showed a Kd of 9.8 nM.

The next assay has as its target T2, human FcγRIIb. Kind of assay: SPR.
In turn, B1 displayed an equilibrium dissociation constant (Kd) of 19 nM. This lies in the double-digit nanomolar range.

B8 displayed a Kd of 20 nM.

The molecule B2 gave a Kd of 15 nM.

Molecule B3 yielded a dissociation constant (Kd) of 20 nM. This Kd and that of the molecule before are within 1.5-fold of each other.

Turning to B4, the equilibrium dissociation constant (Kd) came to 16 nM. The Kd values of the last two molecules are within 1.5-fold of each other.

B5 registered a dissociation constant (Kd) of 19 nM.

The molecule B6 registered a Kd of 18 nM. This Kd and that of the molecule before are within 1.5-fold of each other.

In turn, B9 displayed a dissociation constant Kd of 17 nM.

Molecule B7 had a Kd of 17 nM.

Another assay deals with human FcRn (human). Kind of assay: SPR, pH 6.0.
Sequence of human FcRn (human) (chain, as listed by the source, chain 1 of 2): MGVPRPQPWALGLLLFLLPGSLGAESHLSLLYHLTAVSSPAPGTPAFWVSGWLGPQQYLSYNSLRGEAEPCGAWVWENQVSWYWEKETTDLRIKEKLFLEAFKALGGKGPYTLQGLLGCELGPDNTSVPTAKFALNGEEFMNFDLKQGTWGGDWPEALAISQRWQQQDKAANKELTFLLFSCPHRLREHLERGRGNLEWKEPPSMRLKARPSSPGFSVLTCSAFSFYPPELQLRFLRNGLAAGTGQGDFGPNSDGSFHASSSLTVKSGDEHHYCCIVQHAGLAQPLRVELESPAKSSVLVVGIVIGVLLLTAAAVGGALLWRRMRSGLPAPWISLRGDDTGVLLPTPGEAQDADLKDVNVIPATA
Sequence of human FcRn (human) (chain, as listed by the source, chain 2 of 2): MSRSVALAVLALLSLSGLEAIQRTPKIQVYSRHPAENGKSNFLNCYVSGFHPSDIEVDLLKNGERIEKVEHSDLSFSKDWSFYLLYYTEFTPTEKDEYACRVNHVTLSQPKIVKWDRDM
On to B10, for which binding was characterised by a dissociation constant (Kd) of 210 nM.

In turn, B11 registered a dissociation constant Kd of 250 nM.

Turning to B12, the affinity, expressed as Kd, was 400 nM.

As to B13, the dissociation constant Kd came out at 150 nM.

In the case of B14, the Kd came out at 210 nM.

Take B15: the Kd amounted to 240 nM.

B16: the Kd came to 2400 nM.

A further assay addresses human FcRn (human). Kind of assay: SPR, pH 6.0. The source holds these as a separate data set.
Molecule B17 yielded a Kd of 130 nM.

Molecule B18 had a Kd of 270 nM.

B19 showed an equilibrium dissociation constant (Kd) of 160 nM. This Kd is about 1.7-fold lower than that of the molecule before.

B20 gave a Kd of 160 nM.

B21 gave a Kd of 77 nM. This Kd lies about 2.1-fold lower than the previous one.

With B22, the Kd was determined as 73 nM.

With B23, binding was characterised by a dissociation constant (Kd) of 150 nM.

Take B24: the affinity, expressed as Kd, was 68 nM.

For B25, the Kd was determined as 400 nM.

As for B26, the Kd was 80 nM.

The molecule B27 had a Kd of 86 nM.

Turning to B28, binding was put at a Kd of 420 nM.

In turn, B29 yielded a dissociation constant (Kd) of 86 nM.

The values are drawn from patent publication US20190112393 (published 2019).
